Assay results: the Human Domainome abundance scans (Beltran et al. 2025)
± gives the uncertainty stated by the source.

B1: Dynamin-binding protein, residues 242 to 304; numbered along this chain, Q6XZF7 (parent)
chain: EEPGTYGVALYRFQALEPNELDFEVGDKIRILATLEDGWLEGSLKGRTGIFPYRFVKLCPDTR

Variants of: B1
Experiment: abundance fitness (aPCA) (normalised: wild type 0, dead -1); higher = more abundant; growth selection in yeast, the domain comes from the species named
Conditions: Homo sapiens

| Variant | abundance fitness |
| --- | --- |
| F55L | -0.126 ± 0.034 |
| T62L | -0.214 ± 0.058 |
| L32I | -0.19 ± 0.06 |
| R47Y | -0.282 ± 0.073 |
| R12S | -0.12 ± 0.051 |
| V25A | -0.089 ± 0.058 |
| I29F | -0.561 ± 0.078 |
| W39Q | -0.285 ± 0.17 |
| Y11A | 0.217 ± 0.061 |
| F13A | -0.804 ± 0.16 |
| E20M | 0.023 ± 0.11 |
| P3V | -0.169 ± 0.068 |
| E17K | 0.391 ± 0.091 |
| E17F | -0.513 ± 0.067 |
| G4N | -0.032 ± 0.058 |
| D27Y | -0.587 ± 0.09 |
| F23W | -0.63 ± 0.16 |
| K45M | -0.317 ± 0.15 |
| R47A | -0.552 ± 0.12 |
| A33W | -0.671 ± 0.26 |
| T48N | -0.453 ± 0.076 |
| L44D | -0.385 ± 0.12 |
| L35S | -0.241 ± 0.051 |
| N19A | -0.18 ± 0.06 |

| Variant | abundance fitness |
| --- | --- |
| I31Q | -0.084 ± 0.2 |
| P60N | -0.26 ± 0.066 |
| A15F | -0.982 ± 0.15 |
| G7S | -0.292 ± 0.051 |
| Y6R | -0.712 ± 0.1 |
| T5D | -0.587 ± 0.099 |
| G4R | -0.187 ± 0.059 |
| P3S | 0.008 ± 0.053 |
| V56L | -0.412 ± 0.093 |
| G4L | -0.05 ± 0.064 |
| K45Q | -0.157 ± 0.15 |
| Y6E | -0.718 ± 0.2 |
| Y6F | 0.071 ± 0.048 |
| D37G | -0.073 ± 0.054 |
| V8Y | -0.028 ± 0.066 |
| V25M | -0.169 ± 0.16 |
| E17S | -0.062 ± 0.047 |
| V8C | -0.531 ± 0.099 |
| D27N | -0.424 ± 0.086 |
| Y6K | -0.653 ± 0.2 |
| L16A | 0.187 ± 0.064 |
| F13L | -0.74 ± 0.11 |
| P52K | -0.794 ± 0.33 |
| A15L | -0.626 ± 0.11 |

| Variant | abundance fitness |
| --- | --- |
| E17Y | -0.234 ± 0.066 |
| T34R | -0.196 ± 0.056 |
| G46D | -0.444 ± 0.047 |
| L35A | -0.304 ± 0.068 |
| D61G | -0.063 ± 0.06 |
| E41R | -0.019 ± 0.064 |
| F13Y | 0.213 ± 0.047 |
| P52R | -0.855 ± 0.088 |
| L16S | 0.29 ± 0.048 |
| R63S | 0.15 ± 0.055 |
| K57A | -0.318 ± 0.072 |
| E2N | 0.016 ± 0.068 |
| R63P | 0.164 ± 0.089 |
| D27Q | -0.723 ± 0.23 |
| L44A | -0.399 ± 0.11 |
| L10C | -0.477 ± 0.073 |
| I50D | -0.91 ± 0.14 |
| Y6D | -0.754 ± 0.11 |
| Y6T | -0.45 ± 0.094 |
| L35V | -0.203 ± 0.05 |
| C59Y | 0.007 ± 0.051 |
| L32Q | -0.243 ± 0.14 |
| T5F | -0.057 ± 0.058 |
| N19M | -0.494 ± 0.31 |

| Variant | abundance fitness |
| --- | --- |
| Y53F | -0.079 ± 0.067 |
| P18C | -0.412 ± 0.061 |
| L58P | -0.379 ± 0.092 |
| L58R | -0.12 ± 0.056 |
| T62A | -0.022 ± 0.057 |
| E41L | -0.256 ± 0.074 |
| P52T | -0.783 ± 0.13 |
| L16G | 0.073 ± 0.067 |
| F23D | -0.867 ± 0.14 |
| D37I | -0.89 ± 0.2 |
| E24Q | -0.024 ± 0.15 |
| R54P | -0.525 ± 0.15 |
| G7E | -0.209 ± 0.18 |
| K45R | -0.168 ± 0.071 |
| L32V | -0.176 ± 0.051 |
| V8S | -0.701 ± 0.096 |
| F51G | -0.85 ± 0.095 |
| D61T | -0.08 ± 0.077 |
| N19R | -0.167 ± 0.069 |
| L10S | -0.457 ± 0.065 |
| T48S | -0.351 ± 0.058 |
| K28E | -0.157 ± 0.13 |
| A33S | 0.043 ± 0.054 |
| P60F | -0.149 ± 0.061 |

| Variant | abundance fitness |
| --- | --- |
| L32T | -0.312 ± 0.073 |
| V56Y | -0.535 ± 0.094 |
| D61E | 0.186 ± 0.095 |
| E41S | -0.116 ± 0.05 |
| I31S | -0.879 ± 0.11 |
| I29A | -0.702 ± 0.11 |
| T48A | -0.699 ± 0.11 |
| Q14H | -0.032 ± 0.074 |
| G46L | -0.749 ± 0.059 |
| C59V | 0.024 ± 0.047 |
| V25T | -0.412 ± 0.086 |
| E36P | -0.171 ± 0.099 |
| G4V | 0.008 ± 0.052 |
| D27S | -0.695 ± 0.078 |
| L58V | -0.064 ± 0.044 |
| R54Y | -0.286 ± 0.07 |
| L21H | -0.469 ± 0.13 |
| D61F | -0.247 ± 0.047 |
| G42S | -0.846 ± 0.1 |
| E24P | -0.75 ± 0.14 |
| D22R | -0.185 ± 0.058 |
| P3G | -0.222 ± 0.08 |
| P3T | 0.126 ± 0.075 |
| Y53V | 0.263 ± 0.052 |

| Variant | abundance fitness |
| --- | --- |
| T34M | -0.086 ± 0.12 |
| D61H | -0.145 ± 0.059 |
| V56D | -0.716 ± 0.099 |
| T48R | -0.105 ± 0.062 |
| L16I | 0.03 ± 0.06 |
| K45I | -0.696 ± 0.095 |
| G4P | 0.214 ± 0.11 |
| L35R | 0.13 ± 0.052 |
| Y11K | 0.343 ± 0.11 |
| R30E | -0.328 ± 0.25 |
| A33D | -0.24 ± 0.074 |
| W39N | -0.406 ± 0.068 |
| S43H | -0.373 ± 0.089 |
| V25I | -0.142 ± 0.063 |
| R63E | -0.455 ± 0.29 |
| F51L | -0.492 ± 0.079 |
| F13S | -0.534 ± 0.063 |
| D22W | -0.624 ± 0.18 |
| K45Y | -0.347 ± 0.1 |
| L10G | -0.743 ± 0.098 |
| E2W | 0.044 ± 0.29 |
| V25G | -0.539 ± 0.064 |
| P18M | -0.419 ± 0.19 |
| I29T | -0.639 ± 0.12 |

| Variant | abundance fitness |
| --- | --- |
| F23Y | -0.688 ± 0.1 |
| E17G | 0.072 ± 0.048 |
| E20T | 0.06 ± 0.069 |
| E24M | -0.313 ± 0.2 |
| E36G | -0.167 ± 0.056 |
| L40I | -0.244 ± 0.056 |
| L21F | -0.771 ± 0.091 |
| G42V | -0.575 ± 0.08 |
| G38N | -0.539 ± 0.1 |
| D37L | -0.663 ± 0.12 |
| D37H | -0.274 ± 0.078 |
| K28G | -0.711 ± 0.074 |
| D22M | -0.301 ± 0.13 |
| T48L | -0.436 ± 0.063 |
| L32R | -0.592 ± 0.077 |
| E2I | -0.013 ± 0.072 |
| A9L | -0.662 ± 0.1 |
| D61P | -0.027 ± 0.061 |
| K28R | -0.05 ± 0.053 |
| P18D | -0.044 ± 0.059 |
| R63Q | -0.184 ± 0.19 |
| I50K | 0.153 ± 0.13 |
| D27I | -0.786 ± 0.13 |
